Source: publication PMC10976588

Tests used:
[1] = JC-1 staining in organoids; conditions: glycan lost; control: WT organoids
[2] = MitoSOX staining in organoids; conditions: glycan lost; control: WT organoids
[3] = Western blot, whole-cell lysate; conditions: glycan changed form; control: WT crypts
[4] = complex I, III, IV, V activity kits; conditions: glycan lost; control: WT organoids
[5] = Western blot of lysosome fractions after CCCP; conditions: glycan lost; control: WT organoids
[6] = Western blot of Pink1, pS65-Ub, whole-cell lysate; conditions: glycan lost; control: WT organoids

Protein | other: mitochondrial membrane potential [1] | other: mitochondrial ROS level [2] | expression_or_secretion [3] | further results
basigin (Bsg): Bsg-N306Q (protein) parent chain: MAAALLLALAFTLLSGQGACAAAGFLKAPLSQERWAGGSVVLHCEAVGSPIPEIQWWFEGNAPNDSCSQLWDGARLDRVHIHAAYRQHAASSLSVDGLTAEDTGTYECRASSDPDRNHLTRPPRVKWVRAQASVVVLEPGTIQTSVQEVNSKTQLTCSLNSSGVDIVGHRWMRGGKVLQEDTLPDLHTKYIVDADDRSGEYSCIFLPEPVGRSEINVEGPPRIKVGKKSEHSSEGELAKLVCKSDASYPPITDWFWFKTSDTGEEEAITNSTEANGKYVVVSTPEKSQLTISNLDVNVDPGTYVCNATNAQGTTRETISLRVRSRMAALWPFLGIVAEVLVLVTIIFIYEKRRKPDQTLDEDDPGAAPLKGSGTHMNDKDKNVRQRNAT | no change | no change |  | 
basigin (Bsg): Fut2ΔISC (protein) parent chain: MAAALLLALAFTLLSGQGACAAAGFLKAPLSQERWAGGSVVLHCEAVGSPIPEIQWWFEGNAPNDSCSQLWDGARLDRVHIHAAYRQHAASSLSVDGLTAEDTGTYECRASSDPDRNHLTRPPRVKWVRAQASVVVLEPGTIQTSVQEVNSKTQLTCSLNSSGVDIVGHRWMRGGKVLQEDTLPDLHTKYIVDADDRSGEYSCIFLPEPVGRSEINVEGPPRIKVGKKSEHSSEGELAKLVCKSDASYPPITDWFWFKTSDTGEEEAITNSTEANGKYVVVSTPEKSQLTISNLDVNVDPGTYVCNATNAQGTTRETISLRVRSRMAALWPFLGIVAEVLVLVTIIFIYEKRRKPDQTLDEDDPGAAPLKGSGTHMNDKDKNVRQRNAT |  |  | no change | 
N-acyl sphingosine amidohydrolase 2 (Asah2): Asah2-N444Q (protein) parent chain: MAKRTFSTLEAFLIFLLVIMTVITVALLTLLFVTSGTIENHKDSGNHWFSTTLGSTTTQPPPITQTPNFPSFRNFSGYYIGVGRADCTGQVSDINLMGYGKNGQNARGLLTRLFSRAFILADPDGSNRMAFVSVELCMISQRLRLEVLKRLESKYGSLYRRDNVILSAIHTHSGPAGFFQYTLYILASEGFSNRTFQYIVSGIMKSIDIAHTNLKPGKIFINKGNVANVQINRSPSSYLLNPQSERARYSSNTDKEMLVLKLVDLNGEDLGLISWFAIHPVSMNNSNHFVNSDNMGYAAYLFEQEKNKGYLPGQGPFVAGFASSNLGDVSPNILGPHCVNTGESCDNDKSTCPNGGPSMCMASGPGQDMFESTHIIGRIIYQKAKELYASASQEVTGPVLAAHQWVNMTDVSVQLNATHTVKTCKPALGYSFAAGTIDGVSGLNITQGTTEGDPFWDTLRDQLLGKPSEEIVECQKPKPILLHSGELTIPHPWQPDIVDVQIVTVGSLAIAAIPGELTTMSGRRFREAIKKEFALYGMKDMTVVIAGLSNVYTHYITTYEEYQAQRYEAASTIYGPHTLSAYIQLFRDLAKAIATDTVANMSSGPEPPFFKNLIASLIPNIADRAPIGKHFGDVLQPAKPEYRVGEVVEVIFVGANPKNSAENQTHQTFLTVEKYEDSVADWQIMYNDASWETRFYWHKGILGLSNATIYWHIPDTAYPGIYRIRYFGHNRKQELLKPAVILAFEGISSPFEVVTT | decreases | increases |  | other: respiratory chain complex activity [4]: decreases
N-acyl sphingosine amidohydrolase 2 (Asah2): Fut2ΔISC (protein) parent chain: MAKRTFSTLEAFLIFLLVIMTVITVALLTLLFVTSGTIENHKDSGNHWFSTTLGSTTTQPPPITQTPNFPSFRNFSGYYIGVGRADCTGQVSDINLMGYGKNGQNARGLLTRLFSRAFILADPDGSNRMAFVSVELCMISQRLRLEVLKRLESKYGSLYRRDNVILSAIHTHSGPAGFFQYTLYILASEGFSNRTFQYIVSGIMKSIDIAHTNLKPGKIFINKGNVANVQINRSPSSYLLNPQSERARYSSNTDKEMLVLKLVDLNGEDLGLISWFAIHPVSMNNSNHFVNSDNMGYAAYLFEQEKNKGYLPGQGPFVAGFASSNLGDVSPNILGPHCVNTGESCDNDKSTCPNGGPSMCMASGPGQDMFESTHIIGRIIYQKAKELYASASQEVTGPVLAAHQWVNMTDVSVQLNATHTVKTCKPALGYSFAAGTIDGVSGLNITQGTTEGDPFWDTLRDQLLGKPSEEIVECQKPKPILLHSGELTIPHPWQPDIVDVQIVTVGSLAIAAIPGELTTMSGRRFREAIKKEFALYGMKDMTVVIAGLSNVYTHYITTYEEYQAQRYEAASTIYGPHTLSAYIQLFRDLAKAIATDTVANMSSGPEPPFFKNLIASLIPNIADRAPIGKHFGDVLQPAKPEYRVGEVVEVIFVGANPKNSAENQTHQTFLTVEKYEDSVADWQIMYNDASWETRFYWHKGILGLSNATIYWHIPDTAYPGIYRIRYFGHNRKQELLKPAVILAFEGISSPFEVVTT |  |  | no change | 
Niemann–Pick type C intracellular cholesterol transporter 1 (Npc1): Npc1-N961Q (protein) parent chain: MGAHHPALGLLLLLLCPAQVFSQSCVWYGECGIATGDKRYNCKYSGPPKPLPKDGYDLVQELCPGLFFDNVSLCCDIQQLQTLKSNLQLPLQFLSRCPSCFYNLMTLFCELTCSPHQSQFLNVTATEDYFDPKTQENKTNVKELEYFVGQSFANAMYNACRDVEAPSSNEKALGLLCGRDARACNATNWIEYMFNKDNGQAPFTIIPVFSDLSILGMEPMRNATKGCNESVDEVTGPCSCQDCSIVCGPKPQPPPPPMPWRIWGLDAMYVIMWVTYVAFLFVFFGALLAVWCHRRRYFVSEYTPIDSNIAFSVNSSDKGEASCCDPLGAAFDDCLRRMFTKWGAFCVRNPTCIIFFSLAFITVCSSGLVFVQVTTNPVELWSAPHSQARLEKEYFDKHFGPFFRTEQLIIQAPNTSVHIYEPYPAGADVPFGPPLNKEILHQVLDLQIAIESITASYNNETVTLQDICVAPLSPYNKNCTIMSVLNYFQNSHAVLDSQVGDDFYIYADYHTHFLYCVRAPASLNDTSLLHGPCLGTFGGPVFPWLVLGGYDDQNYNNATALVITFPVNNYYNDTERLQRAWAWEKEFISFVKNYKNPNLTISFTAERSIEDELNRESNSDVFTVIISYVVMFLYISLALGHIQSCSRLLVDSKISLGIAGILIVLSSVACSLGIFSYMGMPLTLIVIEVIPFLVLAVGVDNIFILVQTYQRDERLQEETLDQQLGRILGEVAPTMFLSSFSETSAFFFGALSSMPAVHTFSLFAGMAVLIDFLLQITCFVSLLGLDIKRQEKNHLDILCCVRGADDGQGSHASESYLFRFFKNYFAPLLLKDWLRPIVVAVFVGVLSFSVAVVNKVDIGLDQSLSMPNDSYVIDYFKSLAQYLHSGPPVYFVLEEGYNYSSRKGQNMVCGGMGCDNDSLVQQIFNAAELDTYTRVGFAPSSWIDDYFDWVSPQSSCCRLYNVTHQFCNASVMDPTCVRCRPLTPEGKQRPQGKEFMKFLPMFLSDNPNPKCGKGGHAAYGSAVNIVGDDTYIGATYFMTYHTILKTSADYTDAMKKARLIASNITETMRSKGSDYRVFPYSVFYVFYEQYLTIIDDTIFNLSVSLGSIFLVTLVVLGCELWSAVIMCITIAMILVNMFGVMWLWGISLNAVSLVNLVMSCGISVEFCSHITRAFTMSTKGSRVSRAEEALAHMGSSVFSGITLTKFGGIVVLAFAKSQIFEIFYFRMYLAMVLLGATHGLIFLPVLLSYIGPSVNKAKRHTTYERYRGTERERLLNF | decreases | increases |  | other: mitophagy, delivery of mitochondrial proteins to lysosomes [5]: decreases; other: mitophagy activation by CCCP [6]: no change
Niemann–Pick type C intracellular cholesterol transporter 1 (Npc1): Fut2ΔISC (protein) parent chain: MGAHHPALGLLLLLLCPAQVFSQSCVWYGECGIATGDKRYNCKYSGPPKPLPKDGYDLVQELCPGLFFDNVSLCCDIQQLQTLKSNLQLPLQFLSRCPSCFYNLMTLFCELTCSPHQSQFLNVTATEDYFDPKTQENKTNVKELEYFVGQSFANAMYNACRDVEAPSSNEKALGLLCGRDARACNATNWIEYMFNKDNGQAPFTIIPVFSDLSILGMEPMRNATKGCNESVDEVTGPCSCQDCSIVCGPKPQPPPPPMPWRIWGLDAMYVIMWVTYVAFLFVFFGALLAVWCHRRRYFVSEYTPIDSNIAFSVNSSDKGEASCCDPLGAAFDDCLRRMFTKWGAFCVRNPTCIIFFSLAFITVCSSGLVFVQVTTNPVELWSAPHSQARLEKEYFDKHFGPFFRTEQLIIQAPNTSVHIYEPYPAGADVPFGPPLNKEILHQVLDLQIAIESITASYNNETVTLQDICVAPLSPYNKNCTIMSVLNYFQNSHAVLDSQVGDDFYIYADYHTHFLYCVRAPASLNDTSLLHGPCLGTFGGPVFPWLVLGGYDDQNYNNATALVITFPVNNYYNDTERLQRAWAWEKEFISFVKNYKNPNLTISFTAERSIEDELNRESNSDVFTVIISYVVMFLYISLALGHIQSCSRLLVDSKISLGIAGILIVLSSVACSLGIFSYMGMPLTLIVIEVIPFLVLAVGVDNIFILVQTYQRDERLQEETLDQQLGRILGEVAPTMFLSSFSETSAFFFGALSSMPAVHTFSLFAGMAVLIDFLLQITCFVSLLGLDIKRQEKNHLDILCCVRGADDGQGSHASESYLFRFFKNYFAPLLLKDWLRPIVVAVFVGVLSFSVAVVNKVDIGLDQSLSMPNDSYVIDYFKSLAQYLHSGPPVYFVLEEGYNYSSRKGQNMVCGGMGCDNDSLVQQIFNAAELDTYTRVGFAPSSWIDDYFDWVSPQSSCCRLYNVTHQFCNASVMDPTCVRCRPLTPEGKQRPQGKEFMKFLPMFLSDNPNPKCGKGGHAAYGSAVNIVGDDTYIGATYFMTYHTILKTSADYTDAMKKARLIASNITETMRSKGSDYRVFPYSVFYVFYEQYLTIIDDTIFNLSVSLGSIFLVTLVVLGCELWSAVIMCITIAMILVNMFGVMWLWGISLNAVSLVNLVMSCGISVEFCSHITRAFTMSTKGSRVSRAEEALAHMGSSVFSGITLTKFGGIVVLAFAKSQIFEIFYFRMYLAMVLLGATHGLIFLPVLLSYIGPSVNKAKRHTTYERYRGTERERLLNF |  |  | no change | 
